# Numbering of substitutions follows the chain as printed. Names and notes keep the numbering of the source.
# B1: 872-5 VH Q96L (antibody, V domains shown)
# VH: EVQLVESGGGLVQPGGSLRLSCAASGFTFRGYIMSWVRQAPGKGLEWVSWISPEGSRTGYADSVKGRFTISRDNSKNTLYLQMNSLRAEDTAVYYCARLLYGTWFDYWGQGTLVTVSS
# VL: DIQMTQSPSSLSASVGDRVTITCRASQSISSYLNWYQQKPGKAPKLLIYAASSLQSGVPSRFSGSGSGTDFTLTISSLQPEDFATYYCQQATLLLPTFGQGTKVEIKR
# B2: 872-5 VH S52G:VL A91G/T92R (antibody, V domains shown)
# VH: B1 VH with S52G, L100Q
# VL: DIQMTQSPSSLSASVGDRVTITCRASQSISSYLNWYQQKPGKAPKLLIYAASSLQSGVPSRFSGSGSGTDFTLTISSLQPEDFATYYCQQGRLLLPTFGQGTKVEIK
# notes: BLI per 6.1.3
# B3: 872-5 VH S52G/Q96L:VL A91G/T92R (antibody, V domains shown)
# VH: B1 VH with S52G
# VL: B1 VL with A91G, T92R
# notes: BLI per 6.1.3
# B4: 872-5 VL A91G/T92R (antibody, V domains shown)
# VH: B1 VH with L100Q
# VL: B1 VL with A91G, T92R
# notes: BLI per 6.1.3
# B5: 872-5 VL T92R (antibody, V domains shown)
# VH: B1 VH with L100Q
# VL: B1 VL with T92R
# notes: BLI per 6.1.3
# B6: 872-5 VH S52G/Q96L/VL T92R (antibody, V domains shown)
# VH: B1 VH with S52G
# VL: B1 VL with T92R
# notes: BLI per 6.1.3
# B7: 872-5 VH Q96L:VL A91G/T92R (antibody, V domains shown)
# VH: B1 VH
# VL: B1 VL with A91G, T92R
# notes: BLI per 6.1.3
# B8: 872-5 VL A91G (antibody, V domains shown)
# VH: B1 VH with L100Q
# VL: B1 VL with A91G
# notes: BLI per 6.1.3 (monovalent Fab-Fc)
# B9: 872-5 VH S52G/Q96L (antibody, V domains shown)
# VH: B1 VH with S52G
# VL: B1 VL
# notes: BLI per 6.1.3
# B10: 872-5 VH S52G (antibody, V domains shown)
# VH: B1 VH with S52G, L100Q
# VL: B1 VL
# notes: BLI per 6.1.3
# Target: T1, human Fibroblast Activation Protein (FAP), soluble antigen (human, UniProt Q12884 26-760, biotinylated when immobilized on streptavidin sensors)
# T1 construct: also called hFAP; biotinylated FAP
# Test: BLI per 6.1.3, human FAP;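 further: biolayer interferometry with immobilized antigen on sensors, antibody association up to 240 s then dissociation up to 420 s, reference-subtracted, global 1:1 fit with unlinked Rmax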
# Method: Binding constants (kₒₙ, koff and KD) were determined after referencing by subtracting responses from sensors without immobilized antigen. Data were fit globally with Gator software using a 1:1 binding interaction while fitting the responses to an unlinked Rₘₐₓ. All protein samples were diluted in PBST-BSA. Typical protocol for KD determination:
# T1 sequence (Q12884 26-760 limits assumed): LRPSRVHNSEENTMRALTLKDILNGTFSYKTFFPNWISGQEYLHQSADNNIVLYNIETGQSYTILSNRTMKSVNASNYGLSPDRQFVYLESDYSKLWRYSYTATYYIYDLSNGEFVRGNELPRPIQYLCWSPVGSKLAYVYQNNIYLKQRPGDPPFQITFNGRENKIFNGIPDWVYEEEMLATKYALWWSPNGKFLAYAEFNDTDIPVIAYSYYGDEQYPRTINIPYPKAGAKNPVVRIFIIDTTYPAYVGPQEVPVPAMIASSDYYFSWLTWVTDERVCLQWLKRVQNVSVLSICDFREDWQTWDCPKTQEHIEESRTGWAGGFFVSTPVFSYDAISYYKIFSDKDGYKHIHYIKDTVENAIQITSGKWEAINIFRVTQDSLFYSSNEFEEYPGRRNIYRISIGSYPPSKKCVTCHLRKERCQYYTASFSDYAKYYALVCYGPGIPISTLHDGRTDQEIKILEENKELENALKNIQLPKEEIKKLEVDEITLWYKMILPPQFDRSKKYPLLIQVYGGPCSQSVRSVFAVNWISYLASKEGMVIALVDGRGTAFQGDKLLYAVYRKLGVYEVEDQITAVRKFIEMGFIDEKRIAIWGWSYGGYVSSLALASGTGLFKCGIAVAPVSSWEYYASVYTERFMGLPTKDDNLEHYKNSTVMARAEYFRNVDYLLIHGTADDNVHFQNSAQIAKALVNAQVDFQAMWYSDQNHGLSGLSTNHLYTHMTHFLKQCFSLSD
Kd,koff,kon,Binder
1.5 nM,0.000794 s⁻¹,542000 M⁻¹ s⁻¹,B1
2.2 nM,0.00148 s⁻¹,673000 M⁻¹ s⁻¹,B2
0.241 nM,0.000178 s⁻¹,737000 M⁻¹ s⁻¹,B3
0.398 nM,0.000411 s⁻¹,1.03e+06 M⁻¹ s⁻¹,B4
1.6 nM,0.001 s⁻¹,614000 M⁻¹ s⁻¹,B5
0.087 nM,7.61e-05 s⁻¹,878000 M⁻¹ s⁻¹,B6
0.707 nM,0.000571 s⁻¹,812000 M⁻¹ s⁻¹,B7
0.78 nM,0.00102 s⁻¹,1.3e+06 M⁻¹ s⁻¹,B8
0.251 nM,0.000161 s⁻¹,645000 M⁻¹ s⁻¹,B9
2.2 nM,0.00138 s⁻¹,642000 M⁻¹ s⁻¹,B10

# From patent US20240358849A1 (SUZHOU FUSE BIOSCIENCES, published 2024)
